Results on 15 molecules are retold here after patent US20110118131A1 (published 2011).

For the assay, the target named is T1, Ep-CAM (UniProt P16422 24-265, limits assumed).
T1 construct: Antigen of the Biacore analysis of ING-1 variants
T1 sequence (looked up): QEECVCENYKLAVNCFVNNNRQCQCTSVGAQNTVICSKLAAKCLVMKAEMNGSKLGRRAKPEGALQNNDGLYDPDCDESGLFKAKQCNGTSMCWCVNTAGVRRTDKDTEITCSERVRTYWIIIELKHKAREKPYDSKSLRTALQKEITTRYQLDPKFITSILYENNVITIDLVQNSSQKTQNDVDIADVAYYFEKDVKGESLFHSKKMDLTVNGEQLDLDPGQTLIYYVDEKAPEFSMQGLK
The experiment in a line: Biacore, Fab periplasmic extract. (SPR reads the build-up and loss of mass on a sensor chip optically.)

B1: ING-1 heavy chain N52H (Fab, V domains shown)
VH: QIQLVQSGPELKKPGETVKISCKASGYTFTKYGMNWVKQAPGKGLKWMGWIHTYTEEPTYGDDFKGRFAFSLETSASTANLQINNLKSEDTATYFCARFGSAVDYWGQGTSVTVSS
VL: DIVMTQAAFSNPVTLGTSGSISCRSSKSLLHSNGITYLYWYLQKPGQSPQLLIYQMSNLASGVPDRFSSSGSGTDFTLRISRVEAEDVGVYYCAQNLELPRTFGGGTKLEMKR
On to B1, for which the “fold difference in affinity vs original” value was 0.02 fold.

B2: ING-1 heavy chain T53E (Fab, V domains shown)
VH: QIQLVQSGPELKKPGETVKISCKASGYTFTKYGMNWVKQAPGKGLKWMGWINEYTEEPTYGDDFKGRFAFSLETSASTANLQINNLKSEDTATYFCARFGSAVDYWGQGTSVTVSS
VL: DIVMTQAAFSNPVTLGTSGSISCRSSKSLLHSNGITYLYWYLQKPGQSPQLLIYQMSNLASGVPDRFSSSGSGTDFTLRISRVEAEDVGVYYCAQNLELPRTFGGGTKLEMKR
Consider B2, for which the binding result is “no binding”.

B3: ING-1 heavy chain N52R (Fab, V domains shown)
VH: QIQLVQSGPELKKPGETVKISCKASGYTFTKYGMNWVKQAPGKGLKWMGWIRTYTEEPTYGDDFKGRFAFSLETSASTANLQINNLKSEDTATYFCARFGSAVDYWGQGTSVTVSS
VL: DIVMTQAAFSNPVTLGTSGSISCRSSKSLLHSNGITYLYWYLQKPGQSPQLLIYQMSNLASGVPDRFSSSGSGTDFTLRISRVEAEDVGVYYCAQNLELPRTFGGGTKLEMKR
On to B3, for which the binding result was “no binding”.

B4: ING-1 heavy chain T28Q (Fab, V domains shown)
VH: QIQLVQSGPELKKPGETVKISCKASGYQFTKYGMNWVKQAPGKGLKWMGWINTYTEEPTYGDDFKGRFAFSLETSASTANLQINNLKSEDTATYFCARFGSAVDYWGQGTSVTVSS
VL: DIVMTQAAFSNPVTLGTSGSISCRSSKSLLHSNGITYLYWYLQKPGQSPQLLIYQMSNLASGVPDRFSSSGSGTDFTLRISRVEAEDVGVYYCAQNLELPRTFGGGTKLEMKR
Take B4: the binding result is “no binding”.

B5: ING-1 heavy chain P58N (Fab, V domains shown)
VH: QIQLVQSGPELKKPGETVKISCKASGYTFTKYGMNWVKQAPGKGLKWMGWINTYTEENTYGDDFKGRFAFSLETSASTANLQINNLKSEDTATYFCARFGSAVDYWGQGTSVTVSS
VL: DIVMTQAAFSNPVTLGTSGSISCRSSKSLLHSNGITYLYWYLQKPGQSPQLLIYQMSNLASGVPDRFSSSGSGTDFTLRISRVEAEDVGVYYCAQNLELPRTFGGGTKLEMKR
For B5, the “fold difference in affinity vs original” value came to 0.9 fold.

B6: ING-1 heavy chain T30G (Fab, V domains shown)
VH: QIQLVQSGPELKKPGETVKISCKASGYTFGKYGMNWVKQAPGKGLKWMGWINTYTEEPTYGDDFKGRFAFSLETSASTANLQINNLKSEDTATYFCARFGSAVDYWGQGTSVTVSS
VL: DIVMTQAAFSNPVTLGTSGSISCRSSKSLLHSNGITYLYWYLQKPGQSPQLLIYQMSNLASGVPDRFSSSGSGTDFTLRISRVEAEDVGVYYCAQNLELPRTFGGGTKLEMKR
B6: the binding result is recorded as “no binding”.

B7: ING-1 heavy chain T53F (Fab, V domains shown)
VH: QIQLVQSGPELKKPGETVKISCKASGYTFTKYGMNWVKQAPGKGLKWMGWINFYTEEPTYGDDFKGRFAFSLETSASTANLQINNLKSEDTATYFCARFGSAVDYWGQGTSVTVSS
VL: DIVMTQAAFSNPVTLGTSGSISCRSSKSLLHSNGITYLYWYLQKPGQSPQLLIYQMSNLASGVPDRFSSSGSGTDFTLRISRVEAEDVGVYYCAQNLELPRTFGGGTKLEMKR
Turning to B7, the binding result is “no binding”.

B8: ING-1 heavy chain N52W (Fab, V domains shown)
VH: QIQLVQSGPELKKPGETVKISCKASGYTFTKYGMNWVKQAPGKGLKWMGWIWTYTEEPTYGDDFKGRFAFSLETSASTANLQINNLKSEDTATYFCARFGSAVDYWGQGTSVTVSS
VL: DIVMTQAAFSNPVTLGTSGSISCRSSKSLLHSNGITYLYWYLQKPGQSPQLLIYQMSNLASGVPDRFSSSGSGTDFTLRISRVEAEDVGVYYCAQNLELPRTFGGGTKLEMKR
Take B8: the binding result is on record as “no binding”.

B9: ING-1 heavy chain N52Y (Fab, V domains shown)
VH: QIQLVQSGPELKKPGETVKISCKASGYTFTKYGMNWVKQAPGKGLKWMGWIYTYTEEPTYGDDFKGRFAFSLETSASTANLQINNLKSEDTATYFCARFGSAVDYWGQGTSVTVSS
VL: DIVMTQAAFSNPVTLGTSGSISCRSSKSLLHSNGITYLYWYLQKPGQSPQLLIYQMSNLASGVPDRFSSSGSGTDFTLRISRVEAEDVGVYYCAQNLELPRTFGGGTKLEMKR
B9: the binding result is “no binding”.

B10: ING-1 heavy chain N52Q (Fab, V domains shown)
VH: QIQLVQSGPELKKPGETVKISCKASGYTFTKYGMNWVKQAPGKGLKWMGWIQTYTEEPTYGDDFKGRFAFSLETSASTANLQINNLKSEDTATYFCARFGSAVDYWGQGTSVTVSS
VL: DIVMTQAAFSNPVTLGTSGSISCRSSKSLLHSNGITYLYWYLQKPGQSPQLLIYQMSNLASGVPDRFSSSGSGTDFTLRISRVEAEDVGVYYCAQNLELPRTFGGGTKLEMKR
For B10, the binding result was “no binding”.

B11: ING-1 heavy chain T53H (Fab, V domains shown)
VH: QIQLVQSGPELKKPGETVKISCKASGYTFTKYGMNWVKQAPGKGLKWMGWINHYTEEPTYGDDFKGRFAFSLETSASTANLQINNLKSEDTATYFCARFGSAVDYWGQGTSVTVSS
VL: DIVMTQAAFSNPVTLGTSGSISCRSSKSLLHSNGITYLYWYLQKPGQSPQLLIYQMSNLASGVPDRFSSSGSGTDFTLRISRVEAEDVGVYYCAQNLELPRTFGGGTKLEMKR
In the case of B11, the binding result is “no binding”.

B12: ING-1 heavy chain T30Y (Fab, V domains shown)
VH: QIQLVQSGPELKKPGETVKISCKASGYTFYKYGMNWVKQAPGKGLKWMGWINTYTEEPTYGDDFKGRFAFSLETSASTANLQINNLKSEDTATYFCARFGSAVDYWGQGTSVTVSS
VL: DIVMTQAAFSNPVTLGTSGSISCRSSKSLLHSNGITYLYWYLQKPGQSPQLLIYQMSNLASGVPDRFSSSGSGTDFTLRISRVEAEDVGVYYCAQNLELPRTFGGGTKLEMKR
In the case of B12, the “fold difference in affinity vs original” value was found to be 2 fold.

B13: ING-1 heavy chain N52S (Fab, V domains shown)
VH: QIQLVQSGPELKKPGETVKISCKASGYTFTKYGMNWVKQAPGKGLKWMGWISTYTEEPTYGDDFKGRFAFSLETSASTANLQINNLKSEDTATYFCARFGSAVDYWGQGTSVTVSS
VL: DIVMTQAAFSNPVTLGTSGSISCRSSKSLLHSNGITYLYWYLQKPGQSPQLLIYQMSNLASGVPDRFSSSGSGTDFTLRISRVEAEDVGVYYCAQNLELPRTFGGGTKLEMKR
As to B13, the binding result is on record as “no binding”.

B14: ING-1 heavy chain N52K (Fab, V domains shown)
VH: QIQLVQSGPELKKPGETVKISCKASGYTFTKYGMNWVKQAPGKGLKWMGWIKTYTEEPTYGDDFKGRFAFSLETSASTANLQINNLKSEDTATYFCARFGSAVDYWGQGTSVTVSS
VL: DIVMTQAAFSNPVTLGTSGSISCRSSKSLLHSNGITYLYWYLQKPGQSPQLLIYQMSNLASGVPDRFSSSGSGTDFTLRISRVEAEDVGVYYCAQNLELPRTFGGGTKLEMKR
Regarding B14, the binding result is “no binding”.

B15: ING-1 heavy chain T53D (Fab, V domains shown)
VH: QIQLVQSGPELKKPGETVKISCKASGYTFTKYGMNWVKQAPGKGLKWMGWINDYTEEPTYGDDFKGRFAFSLETSASTANLQINNLKSEDTATYFCARFGSAVDYWGQGTSVTVSS
VL: DIVMTQAAFSNPVTLGTSGSISCRSSKSLLHSNGITYLYWYLQKPGQSPQLLIYQMSNLASGVPDRFSSSGSGTDFTLRISRVEAEDVGVYYCAQNLELPRTFGGGTKLEMKR
On to B15, for which the binding result is on record as “no binding”.
